From US20090010911A1, “METHODS AND COMPOSITIONS FOR AFFECTING CYCLOPHILIN A REGULATION OF KINASES IN MODULATING CELLULAR ACTIVITIES” (IOWA STATE UNIVERSITY RESEARCH FOUNDATION, INC., priority 2007, published 2009)

Biological target: T1, Itk LKD enzyme (Mus musculus, UniProt Q03526)
T1 construct: linker kinase domain (Itk LKD); made in house; host or cells: Sf9 insect cells (baculovirus), co-infected 1:1 with Lck baculovirus
T1 sequence (Q03526 344-625 limits assumed): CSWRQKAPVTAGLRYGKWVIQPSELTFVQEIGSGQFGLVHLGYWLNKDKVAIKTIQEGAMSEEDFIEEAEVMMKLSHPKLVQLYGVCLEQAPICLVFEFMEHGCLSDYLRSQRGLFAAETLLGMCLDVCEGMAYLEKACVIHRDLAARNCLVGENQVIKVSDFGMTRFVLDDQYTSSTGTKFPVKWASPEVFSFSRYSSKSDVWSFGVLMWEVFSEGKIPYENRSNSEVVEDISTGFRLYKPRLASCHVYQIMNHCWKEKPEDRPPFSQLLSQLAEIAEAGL
Experiment: Quantitative kinase assay, Km determination for Peptide B and PLCγ1 SH2C-Peptide B fusion
Format: biochemical
Text: 5(a) Construction of a PLCγ1 SH2C-Peptide B fusion protein was based on alignment of Y783 within the PLCγ1 linker and the Tyr of Peptide B. The 14 amino acids of Peptide B were used to replace the last 16 amino acids of PLCγ1 SH2C-Y783-. The Tyr that is phosphorylated in each substrate is boxed. A mutant construct is also shown that contains serine in place of the tyrosine of peptide B. This site was mutated to serine instead of phenylalanine due to solubility problems associated with the Tyr to Phe mutation. 5(b) FLAG-tagged Itk LKD enzyme (1 μM) was incubated with 20 μM of the PLCγ1 SH2C-Peptide B fusion protein (lane 4) or 20 μM of the PLCγ1 SH2C-Peptide B(YS) mutant protein (lane 5) in an in vitro kinase assay. Lanes 1-3 are Itk enzyme alone, PLCγ1 SH2C-Peptide B substrate alone and PLCγ1 SH2C-Peptide B(YS) substrate alone, respectively, that have each been subjected to the same in vitro kinase assay conditions. (c & d) FLAG-tagged Itk LKD enzyme was incubated with increasing amounts of biotinylated PLCγ1 SH2C-Peptide B 5(c) or biotinylated Peptide B alone 5(d) in an in vitro kinase assay. 5(e) Kinetic parameters describing phosphorylation of Peptide B and the PLCγ1 SH2C-Peptide B fusion protein by Itk. Data shown are the average of two independent experiments.
Kinase assays and Western Blotting—Itk Full-length (FL), linker kinase domain (Itk LKD), kinase domain (Itk KD), full-length Btk or full-length Tec were incubated with the indicated substrates in an in vitro kinase assay buffer (50 mM Hepes pH 7.0, 10 mM MgCl2, 1 mM DTT, 1 mg/ml BSA, 1 mM Pefabloc and 200 μM ATP) for one hour at RT. The samples were boiled, separated by SDS-PAGE and transferred onto a PVDF membrane. The membranes were then blotted with either phosphotyrosine specific antibodies (anti-pY783 for PLCγ1 or pY223 Btk antibody used to detect pY180 in Itk, pY187 in Tec and pY223 in Btk (18)), an anti-phosphotyrosine antibody (4G10 from Upstate), or an anti-FLAG antibody (Sigma) and developed by standard chemiluminescence (Pierce) methods. Quantitative kinase assays (25): Km determinations for Peptide B [(Aminohexanoyl biotin-EQEDEPEGIYGVLF-NH2) (Anaspec Inc.)] and the biotinylated PLCγ1 SH2C-Peptide B fusion were carried out by incubating purified Itk LKD enzyme in reaction buffer (50 mM Hepes pH 7.0, 10 mM MgCl2, 1 mM DTT, 1 mg/ml BSA, 1 mM Pefabloc SC (4-(2-aminoethyl)-benzenesulfonyl-fluoride) and 200 μM ATP) and 5 μCi [^32P] ATP (GE Healthcare) at room temperature. Peptide B concentration was varied between 0-400 μM and PLCγ1 SH2C-Peptide B fusion concentration was varied between 0-80 μM. The enzyme concentration used for kinetic analysis was 0.9 μM. Each assay was done in duplicate. […]

increase in substrate affinity (compared to Peptide B alone): 15 fold
B1: SH2-Peptide B fusion: PLCγ1 SH2C domain covalently linked to the amino terminus of Peptide B, biotinylated fusion protein (protein)
chain: QTNAHESKEWYHASLTRAQAEHMLMRVPRDGAFLVRKRNEPNSYAISFRAEGKIKHCRVQQEGQTVMLGNSEFDSLVDLISYYEKHPLYRKMKLRYPINEEALEKIGTAEPDFGAEQEDEPEGIYGVLF
modifications: left off: things letters cannot carry
notes: PLCγ1 SH2C domain covalently linked to the amino terminus of Peptide B, biotinylated fusion protein
better substrate (kcat/Km) (compared to Peptide B alone): 7 fold | kcat value, change on attachment of PLCγ1 SH2C domain to Peptide B (compared to Peptide B alone): only changed to a small extent | Km (phosphorylation by Itk LKD enzyme 0.9 μM, 200 μM ATP, room temperature): 5.64 µM
